Results: the RNAGym collection of RNA variant scans (doi:10.1073/pnas.2313332121)
Variants at the floor of the assay were thinned out.

B1: TPR 5TU (parent)
chain: GGAUCUUCUCGAUCUAACAAAAAAGACAAAUCUGCCACAAAGCUUGAGAGCAUCUUCGGAUGCAGAGGCGGCAGCCUUCGGUGGCGCGAUAGCGCCAACGUUCUCAACUAUGACACGCAAAACGCGUGCUCCGUUGAAUGGAGUUUAUCAUG

Variants of: B1
Assay: polymerase ribozyme fitness, log enrichment relative to wild type (log ratio); higher = more active; in vitro selection for triplet polymerase activity
Summary of the method: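 Mutant libraries were PCR-built and transcribed for each subunit of a heterodimeric triplet polymerase ribozyme and selected for one round in triplicate at −7 °C, frozen, before gel excision of extended constructs and streptavidin-bead capture. Input and output libraries were Illumina-sequenced, keeping genotypes with ≥10 input reads and ≥1 read per output. Fitness is a logarithmic ratio of genotype to wild-type enrichment, in base 2, using inverse-variance-weighted replicate averages.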

| Variant | polymerase ribozyme fitness (log ratio) |
| --- | --- |
| A60G A115G U144C U146A A150U | -3.85 |
| G59U G94U C105U G124U G143C | -3.65 |
| G59C G86C G143U | ≤ -4.2 |
| G59U C99U U104G G128U U134A G136U A138G | ≤ -4.2 |
| A60C A97U | -1.64 |
| G59U A60C | -2.96 |
| A60G U61A A97G | -1.38 |
| A60G C85G G94A | -0.0985 |
| G59U G68A G83A A89U G94U G128U | ≤ -4.2 |
| A60C C76U G88U C116G U135G A142G U148G | ≤ -4.2 |
| G59U U102G | -3.26 |
| A60G C69A G88A C95G U101A A106C A107G A119C U148A | ≤ -4.2 |
| A60C G81C C87A | ≤ -4.2 |
| A60C C85A C116A | -1.6 |
| A60U A89C A142U | -2.09 |
| A60C C63U U77C G128U A150G G152A | ≤ -4.2 |
| G59U U90G A91G C95A G126C U146G | ≤ -4.2 |
| G59C U61A | -1.51 |
| A60G G80C G140A G141U | ≤ -4.2 |
| A60G G94A | 0.0761 |
| A60G C93A A97C A110U C123U U130G G133A | ≤ -4.2 |
| A60G C105G U145G | -1.64 |
| A60G C75G | -2.36 |
| A60U A91G G141A U145G | -3.98 |

| Variant | polymerase ribozyme fitness (log ratio) |
| --- | --- |
| A60C C105G | -3.44 |
| A60C U82G G84A | -1.71 |
| A60G G92A C96U A121C | -2.75 |
| G59U A98G | 0.162 |
| G59U C69G G88C C125A | ≤ -4.2 |
| A60G G70A U78C U130A | ≤ -4.2 |
| A60C U82G G86A U146G | -3.33 |
| A60G G84A C118A | -0.875 |
| A60G G70C A89C | -3.24 |
| A60G G71A G141U | ≤ -4.2 |
| A60C C103A | ≤ -4.2 |
| A60C A73G C96U U101G | -3.45 |
| G59C G133U | -3.47 |
| A60C G67C A73G G81A C114A G136C | ≤ -4.2 |
| A60C C76A G92U C95A U145G C149G | ≤ -4.2 |
| G59C G86C C96U A121U | -3.29 |
| G59C G92A | -2.89 |
| G59U A73G | -0.629 |
| A60G U102A U109G A115C | -3.77 |
| A60G A73U C93U | -1.38 |
| A60G G117C G124U | 0.122 |
| G59C U61G G84A C95G A120C G143U | -4.18 |
| A60G U78A A106G C118U | ≤ -4.2 |
| G59U C69U C87G C105G C129A G141A | ≤ -4.2 |

| Variant | polymerase ribozyme fitness (log ratio) |
| --- | --- |
| A60C U148G A150U | ≤ -4.2 |
| A60G C123U G124A C131A | -2.39 |
| A60G G68U G80C U139A | ≤ -4.2 |
| G59U A120U A122U | -0.451 |
| A60C G80A | -2.27 |
| A60G G128U | -2.75 |
| A60C G81A C87A G133C G143A U148A | ≤ -4.2 |
| G59U G88C C116G | -3.85 |
| A60G U139C G141C U144A | -4.04 |
| A60G U77G C87U C132G | ≤ -4.2 |
| A60G C93G | -3.44 |
| G59U G68A U78C C93G G124A C131G G141U | ≤ -4.2 |
| G59U C75U C76U C93G A115U | ≤ -4.2 |
| G59U U139C | -3.8 |
| A60G A150G | -0.0266 |
| G59U A91U | -4.12 |
| A60C G71A C85A G143C | ≤ -4.2 |
| G59C U78C G83A | -0.666 |
| G59C G94A U101G A113C | ≤ -4.2 |
| A60C A89C G94A | -1.69 |
| G59U A91U G141A | ≤ -4.2 |
| G59C U61G C96G C105U A115U A150U | ≤ -4.2 |
| G59U C87U C108U C125A | -3.4 |
| A60G U134G G143U | -3.39 |

| Variant | polymerase ribozyme fitness (log ratio) |
| --- | --- |
| A60G A107U C131G | ≤ -4.2 |
| G59C G100A A115C U144C | ≤ -4.2 |
| G59U G67C G136A | ≤ -4.2 |
| G59U G124C U134G U146A | -3.17 |
| A60G C76A A91G C95U A107C | ≤ -4.2 |
| G59U C93A G133A A138U G141A | ≤ -4.2 |
| G59U G88U A121U U127A U134G | ≤ -4.2 |
| G59U C85U A150U | 1.1 |
| G59C U127G U130C | ≤ -4.2 |
| G59U G86A A147U | -0.0426 |
| G59U U148G | -3.83 |
| G59U U148C | -1.18 |
| G59C G126A | 0.0741 |
| G59C G126U | 0.134 |
| G59U G94A A98G | -1.07 |
| A60C C87A A98U | ≤ -4.2 |
| A60G G67U C93U C99U C129U | ≤ -4.2 |
| G59U C93U C114G | -3.92 |
| G59U G152C | -2.8 |
| G59C G124A | -1.57 |
| A60G G70C U77A U135G | ≤ -4.2 |
| A60U A91U C96A C103A A115U | ≤ -4.2 |
| G59C G86A | -2.61 |
| A60G G117A | 0.434 |

| Variant | polymerase ribozyme fitness (log ratio) |
| --- | --- |
| G59C G86A A89G | -4 |
| A60G G81A A97U C99U | -1.35 |
| A60G C75G G81C G94U C103A A107U U111G | ≤ -4.2 |
| A60G G126A | 1.03 |
| A60G C99U A150C | -4.02 |
| A60G C96G | -0.394 |
| G59U C99U C132U | -1.59 |
| A60G A91C C95U A110U C114U C118G A150U | ≤ -4.2 |
| A60C U61G G92A A110U | -3.93 |
| A60C U61C C76U A121G | ≤ -4.2 |
| A60C A73G C93U | ≤ -4.2 |
| G59U C76U C105A A113U C116U | ≤ -4.2 |
| A60C | -0.597 |
| A60G | 0.0111 |
| A60U | -0.665 |
| A60G U144A | -0.159 |
| A60G G70A C108G | ≤ -4.2 |
| G59U G84U | -2.72 |
| G59U G86A C118G | -2.48 |
| G59C G83A C87A A137U G140U | ≤ -4.2 |
| A60G A73G G92U | 0.661 |
| G59U C96U A142G | -1.66 |
| A60G G83A G86A A97C C125G C131G G136A G152U | ≤ -4.2 |
| G59C G84A | -0.218 |

| Variant | polymerase ribozyme fitness (log ratio) |
| --- | --- |
| A60G C95U C96A | -1.03 |
| G59U U78G C79A C87U U109G A110U | -3.99 |
| A60G C93G A147G | -4.1 |
| A60G C116U | 0.141 |
| A60C G62C G83U G133A | ≤ -4.2 |
| A60U A89C | -0.611 |
| A60C C76U | -3.17 |
| A60G U134G | -2.14 |
| A60G U134A | -1.8 |
| A60C G88C | ≤ -4.2 |
| G59C U101G | -0.121 |
| A60G C129G | -2.25 |
| A60G C87U U101A | -0.517 |
| G59C G86U C95U | -2.13 |
| G59C G83A | -0.754 |
| G59C G83U | 0.0759 |
| A60C A91U C118A | ≤ -4.2 |
| A60G C79G | -3.75 |
| A60C C93U | -2.64 |
| A60C C93A | -3.64 |
| G59C G81U G83A G124A G141U | 0.692 |
| A60C C79U U102A C103A A142G | ≤ -4.2 |
| A60G C95U | -0.927 |
| A60G A89G | -0.778 |

| Variant | polymerase ribozyme fitness (log ratio) |
| --- | --- |
| G59U C69G | -1.07 |
| G59C G88C A106U C108U | ≤ -4.2 |
| A60G A107U | -3.1 |
| G59C G86C C118A | -2.85 |
| A60G U104G G136U U144C | -3.29 |
| A60C C85A C125G U144G | -2.67 |
| G59C U82G C85A U102G | -4.09 |
| G59U C75A C96G | ≤ -4.2 |
| G59C G94C A119C U146G | -1.61 |
| A60U A106G | -0.0172 |
| G59C U78G G81C | -4.11 |
| A60G G94A U102A C123G | -1.46 |
| A60C G83U A121U | -2.35 |
| A60U A150C | -3.39 |
| G59U A89U C95G | -2.27 |
| G59U A97C C99G | -3.18 |
| A60C C93U C123A | -1.12 |
| G59U C96U | -0.292 |
| G59U C96A | -0.703 |
| A60G U61G G81C A122C A142U | -3.02 |
| G59U C93A G152U | ≤ -4.2 |
| A60G U90G U145A | ≤ -4.2 |
| G59U | -0.206 |
